Assay results reported in patent publication US20200216824A1, “REGULATING PROTEIN SPONTANEOUS RUPTURES” (Bowling Green State University, priority 2019, published 2020).
“Also recorded” adds a separate entry of the source.

Assays:
calmodulin (CaM) = calmodulin (CaM) (Homo sapiens, UniProt P0DP23); assay: Effect of Ca2+ / EGTA on CaM rupture under AFM compressive force; conditions: 1 mM CaCl2 for Ca2+; 2 mM EGTA buffer treatment
Procedure: (§1) In the experiment of compressive force manipulation on both Apo- and Ca^2+-ligated CaM, a modified AFM apparatus with an ultra-soft AFM tip was used to apply compressive force on a single protein molecule tethered to a glass coverslip through covalent bonding between the linker molecule and amino group of the protein, and its response was studied.
The same experiment was carried out on Ca^2+-ligated CaM. FIG. 14B represents the typical AFM compressive force curve on a Ca^2+-ligated single CaM molecule. […] Nevertheless, repeated rupture events on a single protein molecule have been noticed when a repeated force manipulation experiment on the same protein molecule has been carried out.
FIG. 29 illustrates the scheme of tethering single protein molecules on a cover glass surface. The cover glass (Gold Seal) was first cleaned and silanized with a mixture of (3-aminopropyl) trimethoxysilane, isobutyltrimethoxysilane with a ratio of 1:1000 dissolved in DMSO (10% v/v) for 12 hours, and then incubated in 10 nM dimethyl suberimidate in 50 mM PBS (pH 8.0) for 4 h. After washing with water and methanol, the glass slide was incubated in 10 nM CaM solutions (PBS, pH 7.4) for 4 h. […]
Typical compressive force curves were recorded under different conditions. […]

tau protein = tau protein (Homo sapiens, UniProt P10636); assay: Effect of cations on tau protein rupture under AFM compressive force; conditions: buffer solution pH 7.4
Excerpt: This gives the indication of the presence of two forms of tau protein under different ionic environment. Under K^+environment tau protein exists as a relatively rigid protein structure which is more prone to collapse under compressive force build up. […] In addition, it was also investigated whether this kind of spontaneous and simultaneous rupture of multiple proteins under close proximity can develop an entangled protein third state, a fusion state, and can be a plausible mechanism for protein aggregation.
The protein molecules were tethered to the cover glass through covalent bonding between the amine group of the protein and the linker molecule attached to the coverglass surface. All the force curves were recorded under buffer solution (pH 7.4). When the AFM tip apex touches the surface of the protein molecule it starts loading force on it, once the force reaches a threshold value it can no longer withhold the force and collapses (FIG. 16A). This kind of behavior exists in globular proteins such as HPPK, calmodulin, and others.
Without wishing to be bound by theory, it is believed that there is a comprehensive model for two types of protein structure responses under compressive forces (FIG. 18C, green curve). One is a balloon-like type, reflected by the stress-strain curve in FIG. 18C, which is more rigid in nature and show rupture under compressive force. […]

[1] = AFM compressive force rupture of single CaM molecules (CaM, Apo-CaM, Ca2+-ligated CaM); format: physicochemical
Procedure: The mean rupture force from the distributions are 25 pN and 47 pN for CaM and HPPK molecules, respectively. ΔG was also calculated for CaM rupture, which is about 25.6±7.3 kBT using Bell-Evans Model. The characteristic behavior is due to different structural rigidity and a different vector orientation of the mechanical force inside different protein molecules.
The experiments for CaM protein were repeated under five different ALRs. FIGS. 11A-11E show the statistical distribution of the threshold force at five different ALRs and characterization of CaM rupture force and loading energy. FIGS. 11A-11E show the rupture threshold force distribution in different loading velocities. […] Loading velocity is 100 nm/s. The threshold force required for a single CaM protein molecule to rupture increases from 12 pN to 35 pN as the approaching velocity increases from 50 nm/s to 1000 nm/s, and the threshold force increases linearly along with the log of ALR (FIG. 8D).
as §1
From this distribution, the rupture force was calculated to be around 70 pN. This rupture force is dependent on the AFM tip approaching velocity. To calculate the actual threshold force loading distance, i.e., the amount of structural change of the targeted Apo-CaM molecule under the process of compressive force loading to the threshold value, the force curves were analyzed considering two factors. First, the force loading process causes the tip bending. Because of that, the distance traveled by the electropiezo scanner exceeds the distance traveled by the AFM tip apex. The amount of tip bending in the process of force loading can be easily taken in account considering the force constant of the cantilever (30 pN/nm). Second, the contribution of the hydration shell around a protein molecule (1-2 nm of width) was considered. Therefore, in the recorded force curves, force increases in a much slower rate at the beginning which corresponds to the AFM tip interaction with the outer solvation layer of the protein. In the latter part of the force curve, the force increases in a much faster manner as the AFM tip starts to interact with the protein surface directly. Without wishing to be bound by theory, it is believed that the contact occurs when the compressive force loaded by the AFM tip reaches a certain value to counter the water solvation layer. […]
It is the distance between the point where force loading starts and the point where protein rupture occurs. […] The loading energy was calculated using Eloading=∫F(l)dl, where l is the compressive force loading distance, and F(l) is the loading force. […] Under this approximation, distribution of the calculated threshold compressive force loading energy was plotted in FIG. 15D using Eloading=(F threshold/2)×lthreshold and the mean value was around 32 kBT; however, the energy can be as low as 10 kBT with significant probability, which is biologically accessible from the local thermal fluctuations, such as in living mammalian cells at 37° C.
The loading energy was calculated using Eloading=J F(l)dl. l is the compressive force loading distance, and F(l) is the loading force curve. […]

[2] = AFM-FRET compressive force rupture of single HPPK molecules; format: physicochemical
Excerpt: 6-hydroxymethyl-7,8-dihydropterin pyrophosphokinase (HPPK) is a 158-residue monomer kinase enzyme protein which acts as a catalyst in the pyrophosphorylation reaction that drives the conversion of 6-hydroxymethyl-7,8-dihydropterin (HP) to 6-hydroxymethyl-7,8-dihydropterin pyrophosphate (HPPP) in the presence of ATP leading to the biosynthesis of folate cofactors. AFM was used to apply the compressive force on single protein molecules that are tethered on the glass cover slip surface at a controlled low density for single-molecule measurements. The enzyme HPPK was labeled with Cy3/Cy5 donor acceptor FRET pair on the amino acid residues 88 and 142, respectively (FIG. 2A), for probing the conformational changes of single protein under the compressive force.
The structural rupture of a single HPPK protein under compressive force applied by AFM tip was evaluated. […] When the AFM tip touches a single protein molecule, a compressive force is applied on the targeted protein, the force monotonically increases up to the level of about 60 pN (FIG. 1E), and then the force drops to zero abruptly.
As the piezo continues to approach toward the surface, the compressive force on the protein molecule increases; simultaneously, the protein starts to deform. When the force reaches a threshold value, the protein molecule suddenly ruptures, and the force on the tip releases to zero. As the AFM piezo continues to approach the glass coverslip surface, the tip on glass cannot move anymore, and as a result, piezo displacement causes tip bending. Therefore, from top to bottom, the cantilever bending distance=the piezo displacement D (nm); and the direct AFM instrumental electronic signal was measured and recorded for the loading force, F (mV). If the cantilever force constant k (pN/nm) is known, then, from the reading of measured f (mV), the protein rupture threshold force (pN)=[…] can be calculated.
To evaluate the relation between the compressive threshold force and the tip approaching velocity, the experiment was repeated under different approaching velocities (FIGS. 8-9). The threshold force for a single protein HPPK rupture increases as the apparent loading rate (ALR) by the AFM tip increases (FIG. 8B). ALR equals the approaching velocity times the force constant of AFM cantilever.
A two-state theoretical model, the Bell-Evans theory (eqn. 3), was used to analyze the linear dependence of rupture force with the logarithm of loading rate (FIG. 8B):
where F(r) is the most probable rupture force; kB, the Boltzmann's constant; T, temperature in Kelvin; Xβ is the distance between the bonded state and the transition state where the activation barrier is located; r, the loading rate; and ko the off-rate constant at zero force. The fitting gives two model parameters, kinetic off rate constant ko=12.2±4.5 s^−1 and the distance from the bound to transition state, Xβ=0.34±0.05 nm. Using ko, the barrier height of the transition state (ΔG) was also calculated using the following equation (eqn. 4), where h is the Planck's constant. ΔG of HPPK protein rupture is 27.0±9.8 kBT.
The cover glass (Gold Seal) was first cleaned and silanized with a mixture of (3-aminopropyl) trimethoxysilane and isobutyltrimethoxysilane with a ratio of 1:10000 dissolved in DMSO (10% v/v) for 12 hours, and then incubated in 10 nM dimethyl suberimidate in 50 mM PBS (pH 8.0) for 4 h. After washing by water and methanol, the glass slide was incubated in 10 nM HPPK solutions (PBS, pH 7.4) for 4 h. The possibility of two protein molecules locating underneath the AFM tip or in the same laser focus spot of around 300 nm diameters is almost zero. Cy3-Cy5 labeled HPPK molecules were tethered randomly on a cover glass surface and then incubated in PBS buffer (pH=7.4) in a homemade chamber immobilized on top of the microscope. To decrease photobleaching, added 0.8% D-glucose, 1 mg/mL glucose oxidase, 0.04 mg/mL catalase, and about 1 mM Trolox were added in the buffer as an oxygen scavenger. […]

Sequence of tau protein (P10636 1-441 isoform P10636-8): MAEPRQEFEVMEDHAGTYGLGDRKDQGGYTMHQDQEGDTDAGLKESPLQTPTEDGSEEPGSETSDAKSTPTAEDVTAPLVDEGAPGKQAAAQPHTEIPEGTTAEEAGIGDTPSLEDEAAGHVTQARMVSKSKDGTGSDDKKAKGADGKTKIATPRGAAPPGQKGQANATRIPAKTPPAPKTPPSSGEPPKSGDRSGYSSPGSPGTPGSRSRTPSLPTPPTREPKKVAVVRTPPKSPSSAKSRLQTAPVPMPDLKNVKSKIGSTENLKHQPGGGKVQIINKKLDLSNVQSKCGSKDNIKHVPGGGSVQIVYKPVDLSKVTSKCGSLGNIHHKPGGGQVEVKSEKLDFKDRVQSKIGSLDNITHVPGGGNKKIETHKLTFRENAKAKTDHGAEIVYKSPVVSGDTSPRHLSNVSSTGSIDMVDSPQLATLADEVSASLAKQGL

Molecule: O=C(O)CN(CCOCCOCCN(CC(=O)O)CC(=O)O)CC(=O)O [EGTA, reference compound]
- rupture event of CaM under compressive force in presence of / after treatment with the substance (calmodulin (CaM)): the rupture event recovers

Molecule: [Ca+2] [Ca^2+]
- rupture event of CaM under compressive force in presence of / after treatment with the substance (calmodulin (CaM)): does not go through a structural rupture; also recorded: No force drop was recorded

Molecule: [Mg+2] [Mg^2+]
- rupture event of tau protein under compressive force in presence of the cation (tau protein): does not show such rupture events; also recorded: no rupture event was found; also recorded: No rupture event was observed

Molecule: calmodulin [CaM]
- rupture threshold force ([1]; 50 nm/s approaching velocity): 12 pN
- loading energy ([1]; 100 nm/s loading velocity): 4-8 kBT
- mean rupture force ([1]; 200 nm/s loading velocity): 25 pN
- rupture threshold force ([1]; 1000 nm/s approaching velocity): 35 pN
- ΔG of rupture ([1]; Bell-Evans Model): about 25.6±7.3 kBT

Molecule: [K+] [K^+, reference compound]
- rupture event of tau protein under compressive force in presence of the cation (tau protein): the rupture event remains

B1: 6-hydroxymethyl-7,8-dihydropterin pyrophosphokinase (protein, UniProt P26281 2-159, looked up)
2-amino-4-hydroxy-6-hydroxymet …: TVAYIAIGSNLASPLEQVNAALKALGDIPESHILTVSSFYRTPPLGPQDQPDYLNAAVALETSLAPEELLNHTQRIELQQGRVRKAERWGPRTLDLDIMLFGNEVINTERLTVPHYDMKNRGFMLWPLFEIAPELVFPDGEMLRQILHTRAFDKLNKW
notes: 158-residue monomer kinase enzyme protein
- rupture threshold force (mean) ([2]; 200 nm/s approaching/loading velocity): 47 pN
- threshold compressive force loading energy ([2]; 200 nm/s loading velocity): around 30 kBT
- rupture threshold force ([2]; 2000 nm/s approaching velocity): 75 pN
- distance from the bound to transition state Xβ ([2]; Bell-Evans fit): 0.34±0.05 nm
- kinetic off rate constant ko ([2]; Bell-Evans fit of rupture force vs loading rate): 12.2 ± 4.5 s⁻¹
- AFM piezoelectric displacement from start of force loading to rupture ([2]; average, FIG. 10C): 5.0˜6.0 nm
- barrier height of the transition state ΔG of protein rupture ([2]; calculated from ko): 27.0±9.8 kBT
- compressive force level reached before abrupt drop ([2]; single force curve, FIG. 1E): about 60 pN
